# Results reported in patent US20160279204A1, “PEPTIDES AND PHARMACEUTICAL COMPOSITIONS FOR USE IN THE TREATMENT BY NASAL ADMINISTRATION OF PATIENTS SUFFERING FROM ANXIETY AND SLEEP DISORDERS” (MAX-PLANCK-GESELLSCHAFT ZUR FÖRDERUNG DER WISSENSCHAFT E.V., priority 2011, published 2016).
# “Also recorded” adds a separate entry of the source. No end group written: not given here.
# How the values were obtained:
# [1] = test system: NPS target cells in the murine brain; settings: mouse, in vivo
# Description: The mice were sacrificed 30 min post-injection.
# Immunohistochemistry was performed on free-floating cryosections (40 μm).
# EGFP-NPSR = test: Cy3-NPS uptake in HEK cells transiently transfected with EGFP-NPSR; assay type: cell-based
# Description: In view of the fact that the NPSR is reported to be the only receptor mediating NPS effects (Duangdao et al., 2009) it may be concluded that the intracellular uptake of Cy3-NPS observed here also in vivo (FIGS. 1A-1D and FIG. 7A) likewise depends on the NPSR.
# ventral hippocampus (VH) = test: Spread of Cy3-NPS after microinjection into area CA1 of the VH; assay type: in vivo, mouse; settings: 0.07 nmol unilaterally into CA1 of VH, 30 min after injection
# Description: Animals were fixed in a stereotactic frame and maintained under isoflurane anesthesia (Forene® 100%, V/V; induction: 2.5%; maintenance: 1.5%; in O2; flow rate: 1 L/min). The mice received acute analgesic treatment with Metacam s.c. during surgery (0.5 mg/kg; in NaCl). 23 gauge stainless-steel guide cannulas were implanted in the CA1 region of the VH at the following coordinates: 3.1 mm posterior, ±3 mm lateral from bregma, and 2 mm ventral from the skull surface (Franklin and Paxinos, 2007). The guide cannulas were fixed with two screws and a two-component adhesive. For behavioural experiments, animals were implanted bilaterally for later bilateral injection, whereas for Cy3-NPS injections, implantation was performed unilaterally. The animals were allowed to recover for at least 6 days before starting the behavioural experiments. Substance infusions were carried out manually, on mice anesthetised by brief inhalation of isoflurane, using a 30 gauge injection cannula connected to a Tygon tube and a 10 μL Hamilton syringe. After infusion, the injection cannula was kept in place for additional 30 s to prevent substance outflow.
# Cy3-NPS was administered unilaterally at a concentration of 0.07 nmol in a volume of 0.7 μL ACSF. […] After mounting with a fluorescence-preserving medium (Shandon Immu-Mount, Thermo Scientific, Bonn, Germany), sections were stored at 4° C.
# brain target neurons = settings: mouse, in vivo, 4 h
# Description: For intranasal application, the anesthetised mice were placed in a supine position, with the head supported at a 450 angle to the body as reported elsewhere (van den Berg et al., 2002). […] The mice were sacrificed at 15 min, 30 min and 4 hrs after the first application.
# Brains were removed, post-fixed in 4% formaldehyde and cryoprotected in 20% sucrose, then shock-frozen in methylbutane. Immunohistochemistry was performed on free-floating cryosections (40 μm). The primary antibodies used were specific for neurofilament (1:1000; Abcam, Cambridge, UK) and GFAP (1:250; DAKO, Glostrup, Denmark). The secondary antibodies used were specific for mouse (Alexa 488 goat anti-mouse IgG) and rabbit (Alexa 488 donkey anti-rabbit IgG) (1:300; Invitrogen, Leek, The Netherlands). The sections were counterstained with DAPI (200 ng/ml; Carl Roth, Karlsruhe, Germany) and mounted with a fluorescence-preserving mounting medium (Shandon Immu-Mount, Thermo Scientific, Waltham, Mass., USA).
# After acquisition, the images were processed using Photoshop and Illustrator (Adobe, San Jose, Calif., USA).
# [2] = test system: evoked neuronal activity flow from the dentate gyrus to area CA1; test: Voltage-sensitive dye imaging (VSDI) in VH slices; design: species or system mouse; settings: (R)-SHA 68 10 μM, pretreatment 15 min, NPS 1 μM
# Description: According to Maggio and Segal (2007) and Fanselow and Dong (2010), VSDI experiments were conducted in the VH. Horizontal brain slices (350 μm-thick) were prepared as described in Refojo et al., 2011 and/or von Wolff et al., 2011). Only the first two slices from the ventral surface of the brain in which the CA1 region was clearly visible were used for the measurements. Staining of slices with the voltage-sensitive dye Di-4-ANEPPS and VSDI were carried out at room temperature (23-25° C.). For staining, slices were kept for 15 min in carbogenated (95% O2/5% CO2) ACSF containing Di-4-ANEPPS (7.5 μg/mL; <0.1% DMSO). The ACSF (pH 7.4) consisted of (in mM): 125 NaCl, 2.5 KCl, 25 NaHCO3, 1.25 NaH2PO4, 2 CaCl2, 1 MgCl2, and 25 glucose. Afterwards, slices were stored for at least 30 min in pure carbogenated ACSF. In the recording chamber, slices were continuously superfused with carbogenated ACSF (3 mL/min flow rate). VSDI and data analysis were performed using the MiCAM02 hard- and software package (BrainVision, Tokyo, Japan). The tandem-lens fluorescence microscope was equipped with the MiCAM02-HR camera and the 2× and 1× lens at the objective and condensing side, respectively. Acquisition settings were: 88×60 pixels frame size, 36.4×40.0 μm pixel size, and 2.2 ms sampling time. To reduce noise, four acquisitions subsequently recorded at intervals of 5 s were averaged. Neuronal activity was evoked by square pulse electrical stimuli (200 μs, 15-20 V) delivered to the dentate gyrus granule cell layer via a custom-made monopolar tungsten electrode (Teflon-insulated to the tip of 75 μm diameter). From recorded signals, the fractional change in fluorescence (ΔF/F) was calculated. For all quantifications, ΔF/F values were spatially and temporally smoothed using a 3×3×3 average filter. VSDI signals presented in images were smoothed with a 5×5×3 average filter. Pixelation of images was reduced by the interpolation function of the MiCAM02 software. […]
# [3] = test system: evoked neuronal activity flow from the dentate gyrus to area CA1; settings: Refojo et al., 2011, von Wolff et al.; cited from earlier work
molecule,measurement,setting,value
"Cy3-NPS: fluorescent NPS-conjugate (Cy3-NPS), Phoenix Pharmaceuticals (SFRNGVGTGMKKTSFQRAKS; also: Cy3 label, place not given here; UniProt P0C0P6 70-89, looked up)",cellular fluorescence after ICV injection,[1],single cells already exhibited distinct patterns of fluorescence
same,co-localisation with neurofilament (NF) and GFAP markers,[1],co-localised exclusively with the neuronal marker
same,subcellular localisation in target cells,[1],found in the cytosol and throughout the processes of target cells
same,internalisation in HEK cells transfected with EGFP-NPSR,EGFP-NPSR; 10 min of incubation with Cy3-NPS,the receptor-ligand complex was internalised and subsequently accumulated in cytoplasmic and perinuclear vesicular structures
same,uptake in HEK cells transfected with empty EGFP-expression plasmid,EGFP-NPSR; control cells without NPSR,did not take up Cy3-NPS molecules
same,spread of injected Cy3-NPS,ventral hippocampus (VH),"remained locally restricted to the VH and accumulated in single cells of the hippocampal pyramidal, radiate, and oriens layers; also recorded: locally restricted to the site of injection"
same,uptake in nuclei of the amygdala,ventral hippocampus (VH),not observed
same,remaining Cy3-NPS after intranasal application,brain target neurons,almost all traces of Cy3-NPS disappeared
"O=C(NCc1ccc(F)cc1)N1CCN2C(=O)OC(c3ccccc3)(c3ccccc3)[C@H]2C1 [(R)-SHA 68, reference compound]",effect of NPSR antagonist on the NPS effect,[2],completely abolished
"corticotropin-releasing hormone (SEEPPISLDLTFHLLREVLEMARAEQLAQQAHSNRKLMEII; ends and bridges not checked; UniProt P06850 154-194, looked up) [corticotropin-releasing hormone (CRH), anxiogenic neuropeptide]",activity flow from the dentate gyrus to area CA1,[3],enhances this activity flow
